From paper PMC8565929 (eLife, 2021)

B1: Recombinant his-tagged FL-Hst4 (pET28a) (natural protein, S. pombe, UniProt Q9UR39 1-415, looked up)
chain: MKVEEHVPLIQESRKRKCQSSENASKRQQLLSKLPLRLHTGNENVDLSPLVSAIRKAKRIVVVTGAGISCDAGIPDFRSSEGLFSSLRAEYKLNCSGKELFDGSVYRDLKSVNIFHAMIRKLHMLSNNARPTDFHLFLSQLAQESKLLRLYTQNIDFLETRLEGLQTCIPLPQSAPWPTTIPLHGTLEVVSCTRCSFLKKFNPDIFDRNGVTVCPDCKTENEVRRIAGKRSVIEGCLRPRIVLYNEIHPDSESIGSVCSQDLKSRPDCLIVAGTSCKIPGVKRIIKEMSNCVHKQKGNVIWLNYDEPTKDFLNLCDLVVQGDLQIAIRRLKPLLDAPSWKLKSHSAKRTSKQKSSEQTKITSSTKITKAIGLNTKSNDSSKKDNTSFQLHQVLNSIEIPKVEIKQEVEYATPSPL

How the values were obtained:
Assay in all cases: pull-down
[1] = target: B1
Swi1-3FLAG = Swi1-3FLAG (S. pombe, UniProt Q9UUM2 1-971)
[2] = target: DDK (Hsk1-HA with Dfp1-myc) (S. pombe, UniProt P50582 1-507; O59836 1-545)
Sequence of DDK (Hsk1-HA with Dfp1-myc) (P50582 whole entry, chain 1 of 2): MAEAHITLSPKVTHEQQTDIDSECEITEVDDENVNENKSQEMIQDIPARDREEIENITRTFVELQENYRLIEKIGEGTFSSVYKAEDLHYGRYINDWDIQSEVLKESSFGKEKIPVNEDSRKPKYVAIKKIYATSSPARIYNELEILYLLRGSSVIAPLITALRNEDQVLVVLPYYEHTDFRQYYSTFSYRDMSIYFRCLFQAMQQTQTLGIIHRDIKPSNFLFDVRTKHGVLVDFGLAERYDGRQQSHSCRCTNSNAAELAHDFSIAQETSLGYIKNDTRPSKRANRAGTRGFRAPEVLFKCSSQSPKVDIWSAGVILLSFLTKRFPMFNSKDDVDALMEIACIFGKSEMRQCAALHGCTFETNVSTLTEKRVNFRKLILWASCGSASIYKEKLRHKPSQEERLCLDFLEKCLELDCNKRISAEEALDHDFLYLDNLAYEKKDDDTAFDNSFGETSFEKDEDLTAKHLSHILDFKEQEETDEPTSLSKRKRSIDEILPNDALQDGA
Sequence of DDK (Hsk1-HA with Dfp1-myc) (O59836 whole entry, chain 2 of 2): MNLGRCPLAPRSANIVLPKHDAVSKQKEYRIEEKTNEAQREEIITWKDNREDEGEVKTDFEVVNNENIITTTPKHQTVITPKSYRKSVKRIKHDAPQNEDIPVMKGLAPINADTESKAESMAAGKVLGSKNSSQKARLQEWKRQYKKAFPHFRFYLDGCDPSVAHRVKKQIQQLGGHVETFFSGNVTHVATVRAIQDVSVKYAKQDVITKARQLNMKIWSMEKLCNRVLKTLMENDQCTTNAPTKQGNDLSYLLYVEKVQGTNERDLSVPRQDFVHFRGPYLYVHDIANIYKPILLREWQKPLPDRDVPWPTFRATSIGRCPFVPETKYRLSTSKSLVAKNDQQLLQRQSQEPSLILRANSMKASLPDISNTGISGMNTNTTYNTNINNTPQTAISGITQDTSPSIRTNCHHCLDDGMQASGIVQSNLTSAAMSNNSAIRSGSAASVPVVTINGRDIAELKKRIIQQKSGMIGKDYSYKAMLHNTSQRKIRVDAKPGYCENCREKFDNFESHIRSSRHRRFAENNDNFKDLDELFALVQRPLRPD

Sequence of Swi1-3FLAG (Q9UUM2 whole entry): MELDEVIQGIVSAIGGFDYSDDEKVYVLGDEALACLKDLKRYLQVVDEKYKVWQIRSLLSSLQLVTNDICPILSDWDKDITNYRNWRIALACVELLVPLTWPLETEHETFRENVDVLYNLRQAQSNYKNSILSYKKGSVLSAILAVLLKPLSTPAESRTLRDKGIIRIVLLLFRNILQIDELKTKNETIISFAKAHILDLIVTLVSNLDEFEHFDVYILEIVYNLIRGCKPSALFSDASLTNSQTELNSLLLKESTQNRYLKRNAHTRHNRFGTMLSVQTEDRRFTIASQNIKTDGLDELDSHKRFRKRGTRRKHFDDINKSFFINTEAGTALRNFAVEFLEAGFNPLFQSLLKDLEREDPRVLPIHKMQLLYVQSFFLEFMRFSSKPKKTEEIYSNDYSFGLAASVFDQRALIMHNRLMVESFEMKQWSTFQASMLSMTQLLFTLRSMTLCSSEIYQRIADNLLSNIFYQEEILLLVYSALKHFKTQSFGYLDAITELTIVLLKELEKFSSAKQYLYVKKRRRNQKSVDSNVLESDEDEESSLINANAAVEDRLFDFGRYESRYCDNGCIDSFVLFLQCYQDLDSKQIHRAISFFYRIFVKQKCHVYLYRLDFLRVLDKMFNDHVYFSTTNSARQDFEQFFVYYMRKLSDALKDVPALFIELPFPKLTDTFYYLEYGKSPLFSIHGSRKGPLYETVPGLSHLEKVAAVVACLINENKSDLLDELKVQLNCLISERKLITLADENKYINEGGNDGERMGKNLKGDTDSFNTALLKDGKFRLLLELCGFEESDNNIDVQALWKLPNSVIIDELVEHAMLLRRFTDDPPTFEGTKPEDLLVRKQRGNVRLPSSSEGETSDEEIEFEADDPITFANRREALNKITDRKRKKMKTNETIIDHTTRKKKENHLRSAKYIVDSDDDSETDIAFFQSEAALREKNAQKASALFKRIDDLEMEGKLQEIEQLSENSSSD

Binder	binding result [1]	binding result (Swi1-3FLAG)	binding result [2]
Swi3-3FLAG (natural protein, S. pombe, UniProt O14350 1-181, looked up) MSTAASDSGVEKLVEENKREEVKKNEEEKEFDLGLEENPDSVKKPRKRLAKFDEERLISENGIPKLRKMMRKVKLKGKGHEAKDLKQLLGMYHIWTHELYPRATFDDSISYLKTLGKHRSVKVRRRGWINEIAVENGSDSNASLFTGPSSNSLVNLTSGDPYVQDTADDAFVAQDNDTQLE	binds	–	–
B1	–	binds	binds
